Experiments:
[1] = molecular target: T1, phospholamban (PLN), pentameric (UniProt P61015); assay: FP; conditions: ACE Kd 0.5 ± 0.1 nM; also gel shift (FIG. 1C); MOPS, 0.1% C12E8, 1 mM MgCl2, 5 mM CaCl2, pH 7.0
T1 sequence: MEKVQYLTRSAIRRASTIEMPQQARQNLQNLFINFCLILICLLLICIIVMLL

[2] = molecular target: T2, phospholamban (PLN), pentameric (UniProt P61015 P61015:1-52); assay: FP; ACE Kd 24 ± 5 nM; MOPS, 0.1% C12E8, 1 mM MgCl2, 5 mM CaCl2, pH 7.0; conditions: chain copies: 5 (stated pentameric); label: 5'-FAM
T2 sequence: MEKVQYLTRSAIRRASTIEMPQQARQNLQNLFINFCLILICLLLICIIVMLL

[3] = molecular target: T2, phospholamban (PLN), pentameric; assay: FP; ACE Kd 80 ± 40 nM; MOPS, 0.1% C12E8, 1 mM MgCl2, 5 mM CaCl2, pH 7.0; conditions: chain copies: 5 (stated pentameric); label: 5'-FAM
[4] = molecular target: T2, phospholamban (PLN), pentameric; assay: FP; ACE Kd 1.2 ± 0.4 nM; MOPS, 0.1% C12E8, 1 mM MgCl2, 5 mM CaCl2, pH 7.0; conditions: chain copies: 5 (stated pentameric); label: 5'-FAM
[5] = molecular target: T2, phospholamban (PLN), pentameric; assay: FP; ACE Kd 6.5 ± 0.9 nM; MOPS, 0.1% C12E8, 1 mM MgCl2, 5 mM CaCl2, pH 7.0; conditions: chain copies: 5 (stated pentameric); label: 5'-FAM
[6] = molecular target: T2, phospholamban (PLN), pentameric; assay: FP; ACE Kd 260 ± 180 nM; MOPS, 0.1% C12E8, 1 mM MgCl2, 5 mM CaCl2, pH 7.0; conditions: chain copies: 5 (stated pentameric); label: 5'-FAM

## NNNNNNNNNNNNNNNNNNNNNNNNNNNNNNNNNNNNNNNNNNNNNNNNNNNNNNNNNNNNNNNNNNNNNNNNNNNNNNNN [ssDNA random 80-mer]
[1]
  Kd: 3.1 nM

B1: ssDNA 30-mer (ssDNA)
DNA: ACTGAGCATGGGATAACCGTTCTCAGACTT
[2]
  Kd: 21 nM

B2: ssDNA 15-mer (ssDNA)
DNA: AGTGATAGCTATGGT
[3]
  Kd: 3.1 nM

B3: ssDNA 50-mer (ssDNA)
DNA: AGCAGCACAGAGGTCAGATGCAGGTAGGGTCCTATGCGTGCTACCGTGAA
[4]
  Kd: 5 nM

B4: ssDNA 20-mer (ssDNA)
DNA: AGCAGCACAGAGGTCAGATG
[5]
  Kd: 1.8 nM

B5: ssDNA 10-mer (ssDNA)
DNA: ATAGCTTGCA
[6]
  Kd: 35 nM
